Positions count from the first letter of the chain named.
B1: WT G-CSFR(Ig-CRH), purified, tag cleaved (receptor)
chain: GSMGCGHISVSAPIVHLGDPITASCIIKQNCSHLDPEPQILWRLGAELQPGGRQQRLSDGTQESIITLPHLNHTQAFLSCSLNWGNSLQILDQVELRAGYPPAIPHNLSCLMNLTTSSLICQWEPGPETHLPTSFTLKSFKSRGNCQTQGDSILDCVPKDGQSHCSIPRKHLLLYQNMGIWVQAENALGTSMSPQLCLDPMDVVKLEPPMLRTMDPSPEAAPPQAGCLQLSWEPWQPGLHINQKCELRHKPQRGEASWALVGPLPLEALQYELCGLLPATAYTLQIRCIRWPLPGHWSDWSPSLELRTTE
notes: also called G-CSFRWT; wild type G-CSFR(Ig-CRH)
B2: design 130 G-CSFE, tag cleaved (ligand)
chain: TPLGPASSLPQSFLLKCLEQVRKIQGDGAALQEKLCATYKLCHPERLVLLGHSLGIPWAPLSSCPSQALQLAGCLSQLHSGLFLYQGLLQALEGISPELGPTLDTLQKDVARFATTIWQQMEELGMAPALQPTQGAMPAFASAFQRRAGGVLVASHLQSFLEVSYRVLRHLAQAAAENLYFQ
notes: also called design 137 G-CSFE; G-CSF137
B3: design 402 G-CSFE, tag cleaved (ligand)
chain: B2 chain with E19K, K108L, R112K, T115K
B4: design 401 G-CSFE, tag cleaved (ligand)
chain: B2 chain with E19K

Key:
[1] = biological target: T1, WT G-CSF, purified from insect cells, tag cleaved (human, UniProt P09919 31-206); test: SPR (Biacore T200, 25 °C), single-cycle kinetics, 1:1 Langmuir fit; lower end of the range found for the WT:WT pair
T1 construct: protein of the SPR; also called G-CSFWT; wild type G-CSF
T1 sequence: B2 chain with R46E, K108L, R112D
Experimental: (§1) To assess binding affinity of G-CSFE to G-CSFRWT, recombinant G-CSFRWT purified as described in Example 5 was captured as described above in this Example. Using single-cycle kinetics, six concentrations of a two-fold dilution series of each G-CSFE mutant starting at […] with a blank buffer control were sequentially injected as described above. The same sample titration was also performed on a reference cell with no variants captured. The G-CSFRWT surface was regenerated as described above.
(§2) Double-referenced sensorgrams from duplicate or triplicate repeat injections were analyzed using Biacore™ T200 Evaluation Software v3.0 and fit to the 1:1 Langmuir binding model.
(§3) Kinetic-derived affinity constants (KD) where obtained by fitting the association and dissociation phases of the curves. The KD of WT G-CSF for WT G-CSFR(Ig-CRH) ranged between 1.8-2.5E-9. For the cases in which the kinetic parameters could not be fit an attempt was made to derive a steady state affinity constant. In those cases, the KD fold change was calculated from the steady state derived KD for the WT G-CSF:WT G-CSFR(Ig-CRH) pair and is indicated in Table 7.

[2] = biological target: T2, design 130 G-CSFR(Ig-CRH)E, tag cleaved (human, UniProt Q99062 26-331); test: SPR, G-CSFRE amine-coupled, G-CSFE injected, single-cycle kinetics
T2 construct: also called 130 ECD (Ig-CRH)
T2 chain: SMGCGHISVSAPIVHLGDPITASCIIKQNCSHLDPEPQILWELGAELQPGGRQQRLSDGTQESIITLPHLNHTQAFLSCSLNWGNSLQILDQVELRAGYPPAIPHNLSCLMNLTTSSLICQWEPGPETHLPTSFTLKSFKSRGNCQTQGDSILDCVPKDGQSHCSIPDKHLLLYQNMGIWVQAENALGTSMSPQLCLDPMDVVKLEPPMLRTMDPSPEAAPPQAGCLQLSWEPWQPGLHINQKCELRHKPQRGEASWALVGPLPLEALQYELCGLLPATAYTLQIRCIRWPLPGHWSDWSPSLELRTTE

[3] = biological target: T3, design 134 G-CSFR(Ig-CRH)E, tag cleaved (human, UniProt Q99062 26-331); test: as above
T3 construct: also called design 137 G-CSFR(Ig-CRH)E
T3 chain: T2 chain with R142E

[4] = biological target: B1; test: SPR, single-cycle kinetics, G-CSFR(Ig-CRH) on the chip, G-CSF injected
Experimental: The SPR binding assays were carried out on a Biacore T200 instrument (GE Healthcare, Mississauga, ON, Canada) with PBS-T (PBS+0.05% (v/v) Tween 20) running buffer at a temperature of 25° C. CM5 Series S sensor chip, Biacore amine coupling kit (NHS, EDC and 1 M ethanolamine), and 10 mM sodium acetate buffers were all purchased from GE Healthcare. PBS running buffer with 0.05% Tween20 (PBS-T) was purchased from Teknova Inc. (Hollister, CA). Designs were assessed in three different immobilization orientations.
as §1, §2

[5] = biological target: T4, design 402 G-CSFR(Ig-CRH)E, tag cleaved (human, UniProt Q99062 26-331); test: SPR, G-CSFRE amine-coupled, G-CSFE injected; steady state derived affinity constant
T4 chain: T2 chain with D168E, Q175E, R289E
Experimental: (§4) To determine binding affinity of G-CSFE to G-CSFRE the G-CSFRE mutant was captured by standard amine coupling as described by the manufacturer (GE LifeSciences). Briefly, immediately after EDC/NHS activation, a 5 μg/mL solution of G-CSFRE in 10 mM NaOAc, pH 5.0, was injected at a flow rate of 5 μL/min until a receptor density of ˜700-900 RU was reached. The remaining active groups were quenched by a 420 s injection of 1 M ethanolamine hydrochloride-NaOH pH 8.5 at 10 μL/min. Using single-cycle kinetics, six concentrations of a two-fold dilution series of the corresponding G-CSFE mutant starting at 200 nM with a blank buffer control were sequentially injected at 25 μL/min for 300 s with a 1800 s dissociation phase, resulting in a set of sensorgrams with a buffer blank reference. The same sample titration was also performed on a reference cell with no variants captured. The chip was regenerated to prepare for the next injection cycle by one pulse of 10 mM glycine/HCl, pH 2.0, for 30 s at 30 μL/min.
as §2, §3

[6] = biological target: T5, design 401 G-CSFR(Ig-CRH)E, tag cleaved (human, UniProt Q99062 26-331); test: as above
T5 chain: T2 chain with R289D
Experimental: as §4, §2, §3

Question: For B1, which Kd [1] is on record?
Answer: 1.8 to 2.5 nM

Question: Which “KD fold change (against WT:WT)” value [2] does the source give for B2 here?
Answer: 0.9 fold

Question: And the “KD fold change (against WT:WT)” value [3]?
Answer: 0.3 fold

Question: Does B2 bind [4]?
Answer: no binding

Question: Does B3 bind [4]?
Answer: no binding

Question: And the “KD fold change (against WT:WT)” value [5]?
Answer: 0.8 fold

Question: Does B4 bind [4]?
Answer: no binding

Question: What about the “KD fold change (against WT:WT)” value [6] of the same binder?
Answer: 0.6 fold
